# T1: extracellular domain of human DLL3 protein (aa27-466) having an N-terminal FLAG tag (AdipoGen, AG-40B-0151) (human, UniProt Q9NYJ7 27-466)
# T1 construct: range 27-466; also called DLL3 ECD protein
# T1 sequence (looked up): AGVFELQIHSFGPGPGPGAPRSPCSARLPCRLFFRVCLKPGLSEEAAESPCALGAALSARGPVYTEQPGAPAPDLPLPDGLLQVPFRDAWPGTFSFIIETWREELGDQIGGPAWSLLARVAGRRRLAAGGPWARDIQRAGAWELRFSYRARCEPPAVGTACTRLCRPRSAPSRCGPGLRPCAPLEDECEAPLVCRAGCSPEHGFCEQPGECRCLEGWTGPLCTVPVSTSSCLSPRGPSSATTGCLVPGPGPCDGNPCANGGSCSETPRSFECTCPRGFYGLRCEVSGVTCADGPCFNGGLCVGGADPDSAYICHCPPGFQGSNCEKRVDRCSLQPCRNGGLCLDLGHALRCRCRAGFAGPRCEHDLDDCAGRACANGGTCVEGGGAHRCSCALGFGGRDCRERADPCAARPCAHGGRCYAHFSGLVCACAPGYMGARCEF
# Molecular target: T1, extracellular domain of human DLL3 …
# Experiment: SPR (Biacore), HCAb captured by anti-human Fc, human DLL3 as analyte, 1:1 fit
# Text: (§1) The camel and humanized sdAb sequences were fused with human IgG1 hinge and Fc, resulting the chimeric and humanized HCAb sequences. The DNAs encoding these HCAbs were synthesized and inserted into pTT5 vector. HCAb expression plasmids were used to transfect HEK293 cells. Crude HCAb proteins secreted to the medium were subjected to SPR affinity measurement as follows: briefly, capturing antibody anti-human Fc pAb (GE healthcare) was immobilized on a Biacore™ CM5 chip to approximately 6,000 RU using EDC-activated amine coupling chemistry. HCAb of interest was captured for 300 seconds onto the sensorchip surface. Human DLL3 (AdipoGen, AG-40B-0151) was flowed over the sensorchip surface at a series of increasing concentrations. Association and dissociation phases were monitored. Captured antibody and antigen were removed between cycles using 10 mM Glycine-HCl, pH 2.0 buffer in order to ensure a fresh binding surface for the antigen. The resulting sensorgrams were fit globally using a 1:1 binding model in order to calculate on- and off-rates (ka and kd, respectively), as well as affinities (KD).
Kd,koff,kon,Binder
37 nM,0.021 s⁻¹,580000 M⁻¹ s⁻¹,"AS63997VH5 HCAb (Fc fusion, not shown: a dimerising Fc or GST, humanized sdAb fused with human IgG1 hinge and Fc (humanized HCAb), crude HEK293 medium) QVQLVESGGGVVQPGGSLRLSCAASFSGYGVSTMAWFRQAPGKGLEGVAAITVGSGNTYYADSVKGRFTISRDNSKNTVYLQMNSLRAEDTAMYYCAVGYLSGGSWDVPGRYNYWGQGTLVTVSS"
33 nM,0.06 s⁻¹,1.8e+06 M⁻¹ s⁻¹,"AS63997VH6 HCAb (Fc fusion, not shown: a dimerising Fc or GST, humanized sdAb fused with human IgG1 hinge and Fc (humanized HCAb), crude HEK293 medium) QVQLVESGGGVVQPGGSLRLSCAASFSGYGVSTMAWFRQAPGKGREGVAAITVGSGNTYYADSVKGRFTISRDNSKNTVYLQMNSLRAEDTAMYYCAVGYLSGGSWDVPGRYNYWGQGTLVTVSS"
21 nM,0.018 s⁻¹,840000 M⁻¹ s⁻¹,"AS63997VH4 HCAb (Fc fusion, not shown: a dimerising Fc or GST, humanized sdAb fused with human IgG1 hinge and Fc (humanized HCAb), crude HEK293 medium) QVQLVESGGGVVQPGGSLRLSCAASFSGYGVSTMAWFRQAPGKGLEGVAAITVGSGNTYYADSVKGRFTISRDNSKNTLYLQMNSLRAEDTAVYYCAVGYLSGGSWDVPGRYNYWGQGTLVTVSS"

# Molecular target: T1, extracellular domain of human DLL3 …
# Experiment: SPR (Biacore), captured antibody, human DLL3 as analyte
# Text: as §1
Kd,koff,kon,Binder
6.9 nM,0.00071 s⁻¹,100000 M⁻¹ s⁻¹,"AS64062 HCAb (Fc fusion, not shown: a dimerising Fc or GST) QVRLVESGGGSVQVGGSLRLSCAASRSPYSSSRCMGWFRQAPGKEREGVAALYTGGGSTSYADSVKGRFTISQDNAKNTVYLQMNSLKPEDTAMYYCAAVVPRGGSCRLDERGYYHWGQGTQVTVSS"
47 nM,0.17 s⁻¹,3.6e+06 M⁻¹ s⁻¹,"AS63931 HCAb (Fc fusion, not shown: a dimerising Fc or GST) EVQLAESGGGSVQAGGSLRLSCAGSFSGYGVSTMAWFRQAPGKEREGVAAITVGSGNTYYADSVTGRFTISRDNAKRTVYLQMNSLKPEDTAMYYCAAGWLSGGSWHVPGRYNYWGQGTQVTVSS"
20 nM,0.0038 s⁻¹,190000 M⁻¹ s⁻¹,"AS64617 HCAb (Fc fusion, not shown: a dimerising Fc or GST) QVQLVESGGGSVQAGGSLRLSCAASGYTDRCSMAWYRQAPGKERELVSRISTSGFTNYAASVKGRFTISQDNAKNTVYLQMNSLNPGDTGMYYCAIIVGRTCSLNYWGNGILVTVSS"
4 nM,0.00041 s⁻¹,100000 M⁻¹ s⁻¹,"AS64052 HCAb (Fc fusion, not shown: a dimerising Fc or GST) QVHLMESGGGSVQAGGSLRLSCAASGYTYRSNFMGWFRQAPGKEREGIATIHSGVATTYYADSVKGRFTISQDNAKNTVYLQMNSLKPEDTAMYYCAAGGPPANADRWYPLRPPGYNYWGQGTQVTVSS"
6.7 nM,0.00096 s⁻¹,140000 M⁻¹ s⁻¹,"AS64047 HCAb (Fc fusion, not shown: a dimerising Fc or GST) QVHLVESGGGSVQAGGSLRLSCAASQYVYRWDLMGWFRQAPGKEREAVAAVYTGDGITYYADSVKGRFSISQDNAKNTVYLQMNSLKPEDTGMYFCAAGFVSGGRWNQSYRYKYWGQGTQVTVSS"
0.96 nM,9e-05 s⁻¹,94000 M⁻¹ s⁻¹,"AS69443 HCAb (Fc fusion, not shown: a dimerising Fc or GST) EVQLAESGGGSVQAGGSLRLSCSASGFTFDDSDMAWYRQAPGDGCDLVSTISSDGSTYYADSVKGRFTISQDNAKNTVYLQMHSLKPEDTAVYYCAADFLTGFYYSDSPHPAPCSASDFGYWGQGTQVTVSS"

# Molecular target: T1, extracellular domain of human DLL3 …
# Experiment: SPR (Biacore), same procedure as for the HCAbs, human DLL3 as analyte
Kd,koff,kon,Binder
23 nM,0.003 s⁻¹,130000 M⁻¹ s⁻¹,"AS56788 scFv (scFv, V domains shown, also called A556788) VH: EVQLVESGGGLVQPGGSLRLSCAASGFNISSYSMHWVRQAPGKGLEWVAYISSYYGYTYYADSVKGRFTISADTSKNTAYLQMNSLRAEDTAVYYCARYSYYYGMDYWGQGTLVTVSS VL: DIQMTQSPSSLSASVGDRVTITCRASQSVSSAVAWYQQKPGKAPKLLIYSASSLYSGVPSRFSGSRSGTDFTLTISSLQPEDFATYYCQQHYAPSLITFGQGTKVEIK"

# From patent US20220249563A1 (LEGEND BIOTECH IRELAND, published 2022)
